Measured values published in patent US20200339681A1 (ORUM THERAPEUTICS, published 2020).
Numbering of substitutions follows the chain as printed. Names and notes keep the numbering of the source. Each block holds one binder with its values, some of them ahead of it.

Experiments:
[1] = molecular target: T1, human neonatal Fc receptor (hFcRn) (human, UniProt P55899 24-297; P61769 21-119, limits assumed); assay: SPR (Biacore 2000), FcRn immobilised, pH 6.0, antibody 2000-62.5 nM; pH 6.0
T1 construct: Immobilised on the CM5 chip, pH 6.0

[2] = molecular target: T1, human neonatal Fc receptor (hFcRn); assay: SPR (Biacore 2000), FcRn immobilised, pH 6.0, antibody 200-6.25 nM
[3] = molecular target: T1, human neonatal Fc receptor (hFcRn); assay: SPR (Biacore 2000), FcRn immobilised, pH 6.0, antibody 2000-62.5 nM
[4] = molecular target: T2, integrin αvβ3 on integrin αvβ3-expressing K562 cells (UniProt P06756 31-1048; P05106 27-788, limits assumed); assay: flow cytometry, 500 nM antibody, Alexa488 anti-human Fc
T2 construct: whole, on cells; also called integrin ανβ3

[5] = molecular target: T3, integrin αvβ5 on human colorectal cancer cell lines SW480 and LoVo (human, UniProt P06756 31-1048; P18084 24-799); assay: as above
T3 construct: whole, on cells; also called integrin ανβ5

[6] = molecular target: T4, EpCAM (epithelial cell adhesion molecule) on human colorectal cancer cell lines SW480 and LoVo (human, UniProt P16422 24-314); assay: as above
T4 construct: whole, on cells; also called cell-surface EpCAM
T4 sequence (looked up): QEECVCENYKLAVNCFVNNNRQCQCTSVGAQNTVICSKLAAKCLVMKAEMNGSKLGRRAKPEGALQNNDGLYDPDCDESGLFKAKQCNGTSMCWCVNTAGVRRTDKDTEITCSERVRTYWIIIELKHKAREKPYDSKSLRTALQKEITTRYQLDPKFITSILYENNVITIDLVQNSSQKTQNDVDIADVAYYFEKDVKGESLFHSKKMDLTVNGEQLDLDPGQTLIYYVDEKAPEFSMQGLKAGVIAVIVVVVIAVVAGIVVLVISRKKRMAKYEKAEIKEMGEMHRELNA

[7] = molecular target: T4, EpCAM (epithelial cell adhesion …); assay: flow cytometry on LoVo cells, 100 nM antibody, Alexa488 anti-human Fc

Kd [1]: 2.7 µM
B1: epRas13 (RT22 VH, IgG1 N434D, hT4-ep59 GSSG light chain) (antibody)
heavy: not shown
VL: EHLHCLGSLCWPGSSGDIQMTQSPSSLSASVGDRVTITCKSSQSLLNSRDGKNYLAWYQQKPGKAPKLLIYWASTRESGVPSRFSGSGSGTDFTLTISSLQPEDFATYFCQQYWYWMYTFGQGTKVEIKR

Kd [2]: 0.148 µM
B2: epRas03 (RT22 VH, IgG1, hT4-ep59 GSSG light chain) (antibody)
heavy: not shown
VL: B1 VL
notes: Differs from epRas03 MG by the linker of the light chain

Kd [3]: 3.57 µM
B3: epRas83 (RT22 VH, IgG1 LALA-PG, N434D, hT4-ep59 GSSG light chain) (antibody)
heavy: not shown
VL: B1 VL

binding result [4]: binds | binding result [5]: binds
B4: RT22-i38 MG (antibody, IgG1, V domains shown)
VH: EVQLVESGGGLVQPGGSLRLSCAASGFTFSDFSMSWVRQAPGKGLEWVSYISRTSHTTYYADSVKGRFTISRDNSKNTLYLQMNSLRAEDTAVYYCARGFKMDYWGQGTLVTVSS
VL: DLVMTQSPSSLSASVGDRVTITCKSSQSLLNSRTGKTYLAWYQQKPGKAPKLLIYWASTRESGVPSRFSGSGSGTDFTLTISSLQPEDFATYFCQQYWYWMYTFGQGTKVEIKR
notes: Intact IgG1,κ

binding result [6]: binds
B5: RT22-ep58 MG (antibody, IgG1, V domains shown)
VH: B4 VH
VL: B4 VL with L2I, V3Q
notes: Intact IgG1,κ

binding result [4]: binds | binding result [5]: binds
B6: RT22-i39 MG (antibody, IgG1, V domains shown)
VH: B4 VH
VL: DGARYCRGDCFDGMGSSSNDLVMTQSPSSLSASVGDRVTITCKSSQSLLNSRDGKNYLAWYQQKPGKAPKLLIYWASTRESGVPSRFSGSGSGTDFTLTISSLQPEDFATYFCQQYWYWMYTFGQGTKVEIKR
notes: Intact IgG1,κ

binding result [6]: binds
B7: RT22-ep59 MG (antibody, human IgG1)
heavy: not shown
VL: EHLHCLGSLCWPMGSSSNDIQMTQSPSSLSASVGDRVTITCKSSQSLLNSRDGKNYLAWYQQKPGKAPKLLIYWASTRESGVPSRFSGSGSGTDFTLTISSLQPEDFATYFCQQYWYWMYTFGQGTKVEIKR
notes: also called epRas03 MG

binding result [7]: binds
B8: epRas23 MG (antibody, human IgG1)
heavy: not shown
VL: B7 VL
